Reference: patent publication USRE48805E1, “Method for cancer targeting treatment and detection of arginine using albumin-binding arginine deiminase fusion protein” (Vision Global Holdings Ltd., priority 2013, dated 2021)

Columns and labels:
N=C(N)NCCC[C@H](N)C(=O)O [1] = assay: Enzyme kinetics (Km), citrulline detection by DAM-TSC assay; format: biochemical, Mycoplasma arginini; conditions: other: substrate arginine (62.5-2000 μM), pH 7.4
Procedure: (§1) To determine the enzyme activity for wild-type ADI and AAD fusion protein in the present invention, the diacetyl monoxime (DAM)-thiosemicarbazide (TSC) assay for citrulline detection is used. The reaction is shown below. L-Arginine argininedeiminase(ADI)orAADfusion>L-Citrulline+Ammonia
(§2) This assay is run by adding sample to a color reagent, which is made by mixing acidic ferric chloride solution with DAM-TSC solution. […] The reaction mixture is heated at 100° C. for […] to develop the color and read at 540 nm (light path=1 cm). A standard curve is constructed using various concentrations of citrulline. One unit of the ADI native enzyme is the amount of enzyme activity that converts 1 μmol of arginine to 1 μmol of citrulline per minute at 37° C. under the assay conditions. The specific activities of wild-type ADI, pegylated ADI (Ensor et al., Cancer Res. 62:5443-5450, 2002) and AAD fusion protein in the present invention are about 20, 15 and 19 U/mg (at pH 7.4, physiological pH), respectively. The specific activities for wild-type ADI and AAD fusion protein at different pH values (in a range from pH 5.5 to 9.5) are also determined, and the optimum pH is at 6.5.
(§3) The Michaelis constant Km is the substrate concentration at which the reaction rate is at half-maximum, and is an inverse measure of the substrate's affinity for the enzyme. […]

N=C(N)NCCC[C@H](N)C(=O)O [2] = assay: as above; format: biochemical, Bacillus cereus; conditions: other: substrate arginine (62.5-2000 μM), pH 7.4
Procedure: as §1, §2, §3

Substance | Km (N=C(N)NCCC[C@H](N)C(=O)O [1]) [µM] | Km (N=C(N)NCCC[C@H](N)C(=O)O [2]) [µM]
AAD fusion protein His-ABD-PolyN-ADI (FIG. 3E), SEQ ID NO: 40, ADI originated from Mycoplasma arginini (Mycoplasmopsis arginini) | 4.1 | 
AAD fusion protein His-ABD-PolyN-bcADI (FIG. 3F), SEQ ID NO: 41, ADI originated from Bacillus cereus (Bacillus cereus AH820) |  | 132
